These results are taken from paper PMC12846278, “Efficient Expression of Lactone Hydrolase Cr2zen for Scalable Zearalenone Degradation in Pichia pastoris” (Toxins, 2025).

In this data set the test system is T1, C[C@H]1CCCC(=O)CCC/C=C/c2cc(O)cc(O)c2C(=O)O1.
T1 construct: full-length ORF (792 bp, 264 aa, 29 kDa) in pPICZalphaA with alpha-factor secretion signal, secreted from Pichia pastoris X33; ~35 kDa band for Ser-Cr2
Description: HPLC, ZEN degradation; Lineweaver-Burk. In kind it is biochemical, Clonostachys rosea. The conditions noted are these: 20 mM Tris-HCl pH 8.0, 30 °C.

The term Km denotes the concentration of substrate that gives half-maximal velocity. For Cr2zen (Clonostachys rosea), the Km is recorded as 75.9 ± 2.1 µM.
